Values quoted from earlier work as cited in patent US7625865B2, “Insulin highly respirable microparticles” (Universita Degli Studi Di Parma, priority 2004, dated 2009).

How the values were obtained:
[1] = intratracheal instillation
[2] = nebulization versus direct instillation of an acidic insulin solution
[3] = rats

For insulin, the “bioavailability of formulation at pH 3 versus pH 7” value [1] is given as “greater bioavalability”, the “absorbed fraction, aerosolized insulin versus instilled insulin” value [2] is given as 10 fold and the absorption of insulin [3] is given as “rapid absorption”.
